assay: yeast display, Sf9 membrane polyspecificity reagent, FACS + sequencing; frameworks hold sequencing errors
In short: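 A nanobody's polyreactivity label depends on the gate it was sorted from. Yeast display cells were stained with 10% biotinylated, detergent-solubilized Sf9 membrane reagent for 1 hour at 4 °C, enriched on streptavidin microbeads and sorted by FACS. The low and high (top ~1%) gates were set on anti-HA fluorescence for expression and streptavidin fluorescence for reagent binding.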

Sequence | polyreactivity (PSR sort gate)
QVQLVESGGGLVQAGGSLRLSCAASAFILYFNAMGWYRQAPGKESDLVAAISRGDGYTYADSVKGRFTISRDNAKNTVYLLMNRLNPEDTEVYYCNAGLGVVVTLYVGSGYDSWGHGTQVTVSS | low polyreactivity
QVQLVESGGGLVQAGGSLRLSCAASAGIFVVYGMGWYRQAPGKERELVAAISWRGGSTYYADSVKGRFTISRDNAKNTVYLQMNSLKPEDTAVYYCAADQYYGGYDYWGQGTQVTVSS | low polyreactivity
QVQLVESGGGLVQAGGSLRLSCAASAIILQRNDMGRYRQAPGKERELVANIRDGGITFADSVKGRFTISRDNAKNTVYLQMNSLKPEDTAVYYCARDDTSPGYGDQSSNAAYYYWGQGTQVTVSS | low polyreactivity
QVQLVESGGGLVQAGGSLRLSCAASAMAWYRQAPWKERELVATISATGGSTYYADSVKGRFTISRDNAKNTVYLQMNSLKPEDTAVYYCNKDPLVFVYWGQGTQVTVSS | low polyreactivity
QVQLVESGGGLVQAGGSLRLSCAASAMGRYRQAPGKERELVAGITSSGGSTYYADSVKGRFTISRDNAKNTVYLQMNSLKPEDTAVYYCNADNAGYGYWSYPYYYWGQGTQVTVSS | low polyreactivity
QVQLVESGGGLVQAGGSLRLSCAASARIFGWNSMGWYRQAPGKERELVAAISWRGGSTYYADSVKGRFTISRDNAKNTVYLQMNSLKPEDTAVYYCNALYTRYVSQWFGYWGEGTQVTVSS | high polyreactivity
QVQLVESGGGLVQAGGSLRLSCAASARIFSQNAMGWYRQAPGKERELVAVISWSGVSTSYSDSVKGRFTISRDNAKNTVYLQMNSLKPEDTAVYYCAARRFYYYSRYPGYNSWGQGTLVTVSS | high polyreactivity
QVQLVESGGGLVQAGGSLRLSCAASARTFPWYAMGLYRQAPGKERELVAAISWTGGSTYYADSVKGRFTISRDNAKHTVYLQMNSLKPEDTAVYYCAASPWYLKYEYWGQGTQVTVSS | low polyreactivity
QVQLVESGGGLVQAGGSLRLSCAASARTFVWNAMGWYRQAPGKERELVAAIDWSGGSTYYADSVKGRFTISRDNAKNTVYFQMYSLKPEDTAVYYCAVAVWNGSEYWGQGSQVTVSS | high polyreactivity
QVQLVESGGGLVQAGGSLRLSCAASASIFYRNAMGWYRQAPGKERELVAGITTRGGSTYYADSVKGRFTISRDNAKNTVYLQMNSLNPEDTAVYYCNRRFPIYGSRFGYYYWGQGTQVTVSS | high polyreactivity
QVQLVESGGGLVQAGGSLRLSCAASASINSNYVMGWNRQAPGKERELVAAITRRGGRTYYADSVKGRFTISRDNAKNTVYLQMNSLKPEDTAVYYCAAERYPEAGSPYGTAEMDYWGQGTQVPVSS | low polyreactivity
QVQLVESGGGLVQAGGSLRLSCAASASTFTINAMGWYRQAPGKERELVAAISRSGGSTFYADSVKGRFTISRDNAKKTVYLQMNSLKPEDTAVYYCAARGVNRQGFNYWGQGTQVTVSS | high polyreactivity
QVQLVESGGGLVQAGGSLRLSCAASASTLNGNAKAWYRQAPGKDRELVAAITTSGGSTYYADSVKGRFTISRDNAKNTDSLQMHSQNPEDTAVYYCNKLIGRRYGWANGYDYWGQGTQVTVSS | low polyreactivity
QVQLVESGGGLVQAGGSLRLSCAASEGWYRQAPGKERELVAAISYIGGSTYYADSVKGRFTISRDNAKNTVYLQMNSLKPEDTAVYYCAKGYPDPQWGGVLAYDYWGQGTQVTVSS | low polyreactivity
QVQLVESGGGLVQAGGSLRLSCAASGAIFYYYAMGWYRQAPGKERELVATITASGGSTFYADSVKGRFTISRDNAKNTVYLQMNSLKPEDTAVYYCAATVYYTYWGQGTQVTVSS | low polyreactivity
QVQLVESGGGLVQAGGSLRLSCAASGATFERNAMGWYRQAPGKERELVAAITGSGGRTYYADSVKGRFTISRDNAKNTVYLQMNSLKPEDTAVYYCAKDTYYPSSRYNRYYYWGQGTQVTVSS | high polyreactivity
QVQLVESGGGLVQAGGSLRLSCAASGATFSVNAMGWYRQAPGKEREWVAAISSTGSTKYADSVKGRFTISRDNAKNPVYLQMNSLKPEDTAVYCAASNADYEYYPFSVWYFSPYDYWGHGTQVTVSS | low polyreactivity
QVQLVESGGGLVQAGGSLRLSCAASGCTFSIYAMGWYRQAPGKERELVAAFTGTVGSTYYADSVKVRFTISRDNAKNTVYLQMKSLKPEDTAVYYCNVDWFWNWRGYYWGQGTQVTVSS | low polyreactivity
QVQLVESGGGLVQAGGSLRLSCAASGDIFDAYAMGWYRQAPGKERELVAAISRSGGSTYYADSVKGRFTISRDNAKNTVYLQMNSLKPEDTAVYYCATRFSRRYVRYDYWGHGTQVTVSS | high polyreactivity
QVQLVESGGGLVQAGGSLRLSCAASGFFFDEYAMGWYRLAPGKERELVAAIDVGGSTYYADSVKGRFTISRDNAKNTVYLQMNSLKPEDTAVYYCARDAFSVSDFSYASIEYDYWGQGTQVTVSS | low polyreactivity
QVQLVESGGGLVQAGGSLRLSCAASGFICTGYTMGWYRQAPGKERELVARISSGDSTKYADSVKGRFTISRDNAKNTVYLQMNSLKPEDTAVYYCNVRDRRSIRSRSDYWGQGTQVTVSS | high polyreactivity
QVQLVESGGGLVQAGGSLRLSCAASGFICYFYAMGWYRQAPGKERELVAVITQSGGSTYYADSVKGRFTISRDNAKNTVYLQMNSLKPEDTAVYYCNADTVRYYPFFSVRYYYWGQGTQVTVSS | low polyreactivity
QVQLVESGGGLVQAGGSLRLSCAASGFIFADYDMGWYRQAPGKERELVAAISWSGGTTYYADSVKGRFTISRDNAKNTVYLQMNSLKPEDTAVYYCAAYWWAVYSVVTGARYDYWGQGTQVTVSS | high polyreactivity
QVQLVESGGGLVQAGGSLRLSCAASGFIFAEYAMGWYRQAPWKERELVAAITRSGGRTYYADSVKGRFTISRDNAKNTVYLQMNSLKPEDTAVYYCAAGLGYPRLYYCGQGTQVTVSS | high polyreactivity
QVQLVESGGGLVQAGGSLRLSCAASGFIFAFYDMGWYRQAPGKERELVAAISWGGSTYYADSVKGRFTISRDNAKNTVYLQMNSLKPQDTAVYYCAARLSRSYRYGYWGQGTQVTVSS | high polyreactivity
QVQLVESGGGLVQAGGSLRLSCAASGFIFAGYALGWYRQAPGKERELVAAISSGGGSTYYADSVKGRFTISRDNAKNTGYLQMNSLKPEDTAVYYCAARRLYPPGYYYWGQGTQVTVSS | high polyreactivity
QVQLVESGGGLVQAGGSLRLSCAASGFIFAIYAMGWYRQAPGKEMELVAAITSSGGSTYYADSVKGRFTISRDNAKNTVYLQMNSLKPEDTAVYYCNKLSWRKYLGYEYWGQGTHVTVSS | high polyreactivity
QVQLVESGGGLVQAGGSLRLSCAASGFIFALYAMGWYRQAPGKERELVASISKSGARTYYADSVKGRFTISRDNAKNTVDLQMNSLKPEDPAVYYCAALYRTGGIQYAGYGYWGQGTQVTVSS | high polyreactivity
QVQLVESGGGLVQAGGSLRLSCAASGFIFANYGMGWYRQAPGKERELVAAISSGGRTYYADSVKARFTISRDNAKNTVYFQMNSLQPEDTAVYYCAAVVRRYNAEDYWGQGTQVTVSS | high polyreactivity
QVQLVESGGGLVQAGGSLRLSCAASGFIFAQNAMGWYRQAPGKERELVAAISGSGGRTYYADSVKGRFTISRDNAKNTVYLQMNSLKPEDTAVYYCAAQYFSGYWGQGTQVTVSS | high polyreactivity

— the nanobody polyreactivity screen of Harvey et al. (2022)
